Measurements as given in patent US20240059796A1 (SHENZHEN MAJORY BIOTECHNOLOGY, published 2024).

Experiments:
[1] = molecular target: TGF-β1 (inducer of the TGF-β/Smad reporter signal) (UniProt P01137 279-390, limits assumed); assay: cell-based or functional assay
[2] = molecular target: T1, fusion protein TGF-β1-His (human, UniProt P01137 279-390); assay: indirect ELISA, TGF-β1-His coated
T1 construct: 118 aa: a 112-residue TGF-β1 segment with a C-terminal His6 tag
Protocol: (§1) The ELISA plate was coated with TGF-β1-His and incubated at 37° C. for 3 hours. After rinsing the plate, 1% BSA was used for blocking for one hour. After rinsing the plate, serially diluted antibody was added and incubated at 37° C. for 60 minutes. After rinsing the plate, enzyme-labeled donkey anti-human IgG secondary antibody working solution was added and incubated at 37° C. for 30 minutes. After rinsing the plate, TMB developing solution was added to develop for 5 minutes in a dark place, and termination solution was added to terminate the chromogenic reaction. The ELISA plate was immediately put into an ELISA reader, and the optical wavelength of 450 nm was selected to read the OD value of each well of the ELISA plate. The data was analyzed and processed with SoftMax Pro software.

[3] = molecular target: T2, human TGF-β1 (immobilised on the CM5 chip, Biacore) (human, UniProt P01137 279-390); assay: SPR (Biacore), human TGF-β1 amine-coupled to CM5, 1:1 fit
T2 construct: also called antigen TGF-β1
Protocol: The affinity constants of CT101 with human TGF-β1 were measured with a Biacore system for molecular interaction. HBS-EP served as buffer, human TGF-β1 was immobilized on the surface of CM5 chip by Bicaore standard amino coupling. Binding of antibody CT101 to human TGF-β1 was performed, where the concentration of antibody CT101 was 8-250 nM (2 fold dilution), the flow rate was 30 μl/min, the binding duration was 120 s, and the dissociation duration was 880 s. The chip was regenerated using 10 mM glycine, where PH was 2.7, the flow rate was 30 μl/min, and the duration was 120 s. The affinity constants were obtained by data fitting analysis with a 1:1 model. Data was collected with Biacore Control 2.0 software and analyzed using Biacore T200 Evaluation 2.0 software. The kinetics parameters of antibodies CT102 and CAT192 binding to human TGF-β1 are shown in Table 2, and the test results of specific kinetic parameters of antibody CT101 to human TGF-β1 are shown in FIG. 21.

[4] = molecular target: T1, fusion protein TGF-β1-His; assay: competitive ELISA, TGF-β1-His coated; competitor human TGFβRII-ECD-Fc-biotin 0.1 µg/ml
Protocol: (§2) The ELISA plate was coated with TGF-β1-His and incubated at 37° C. for 3 hours. After rinsing the plate, 1% BSA was used for blocking at 37° C. for one hour. After rinsing the plate, serially diluted antibody and human TGFβRII-ECD-Fc-biotin (final concentration 0.1 μg/ml) were added and incubated at room temperature for 2 hours. After rinsing the plate, HRP labeled streptavidin SA-HRP (1:2000) working solution was added and incubated at 37° C. for 30 minutes. After rinsing the plate, TMB developing solution was added to develop for 5 min in a dark place, and termination solution was added to terminate the chromogenic reaction. The ELISA plate was immediately put into an ELISA reader, and the optical wavelength of 450 nm was selected to read the OD value of each well of the ELISA plate. The data was analyzed and processed with SoftMax Pro software.

[5] = molecular target: T1, fusion protein TGF-β1-His; assay: indirect ELISA, plate coated with TGF-β1-His, detection with enzyme-labeled anti-human IgG
Protocol: as §1

[6] = molecular target: T1, fusion protein TGF-β1-His; assay: competitive ELISA, plate coated with TGF-β1-His, antibody titrated against human TGFβRII-ECD-Fc-biotin (0.1 µg/ml), detection with SA-HRP
Protocol: as §2

[7] = molecular target: T2, human TGF-β1 (immobilised on the CM5 …); assay: SPR (Biacore), human TGF-β1 amine-coupled to CM5, antibody 250 nM, 1:1 fit
Protocol: The affinity constants of CT101, CT102, CT111, and CT112 with human TGF-β1 were measured with a Biacore molecular interaction meter. HBS-EP served as buffer, human TGF-β1 was immobilized on the surface of CM5 chip by Bicaore standard amino coupling. Binding of antibodies CT101, CT102, CT111, and CT112 to human TGF-β1 was performed, where the concentration of antibodies CT101, CT102, CT111, and CT112 was 250 nM, the flow rate was 30 μl/min, the binding duration was 120 s, and the dissociation duration was 880 s. The chip was regenerated by using 10 mM glycine, where PH was 2.7, the flow rate was 30 μl/min, and the duration was 120 s. The affinity constants were obtained by data fitting analysis with a 1:1 model. Data was collected with Biacore Control 2.0 software and analyzed using Biacore T200 Evaluation 2.0 software. The kinetics parameters of antibodies CT101, CT102, CT111, and CT112 binding to human TGF-β1 are shown in Table 2, and the test results of specific kinetic parameters of antibodies CT101, CT102, CT111, and CT112 binding to human TGF-β1 are shown in FIG. 7.

T1 sequence (P01137 other isoform, or with tags, fused parts or gaps limits assumed): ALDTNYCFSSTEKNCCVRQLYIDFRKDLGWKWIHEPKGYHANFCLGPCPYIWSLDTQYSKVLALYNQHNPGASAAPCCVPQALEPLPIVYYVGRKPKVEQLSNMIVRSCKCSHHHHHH
T2 sequence (P01137 279-390 limits assumed): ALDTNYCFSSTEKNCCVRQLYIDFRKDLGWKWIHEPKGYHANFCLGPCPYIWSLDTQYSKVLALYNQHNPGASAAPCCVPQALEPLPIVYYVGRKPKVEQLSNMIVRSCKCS
Chain of TGF-β1 (inducer of the TGF-β/Smad reporter signal) (P01137 279-390 limits assumed): as above

IC50, TGF-β/Smad luciferase reporter in HEK293-CD4 cells [1] | IC50, TGF-β/Smad luciferase reporter in HEK293 cells [1] | EC50 [2] | Kd [3] | koff [3] | kon [3] | IC50 [4] | EC50 (read off the curve) [5] | IC50 (read off the curve) [6] | Kd [7] | koff [7] | kon [7] | Binder
0.25 nM | ~0.25 nM | 0.0845 nM | 0.8 nM | 2.4e-05 s⁻¹ | 30000 M⁻¹ s⁻¹ | 0.105 nM | ~0.08 nM | ~0.09 nM |  |  |  | anti-TGF-β1 antibody CAT192 (antibody, human IgG4, V domains shown, The background section calls CAT192 a human IgG4 monoclonal antibody) VH: EVQLVESGGGVVQPGRSLRLSCAASGFTFSSYGMHWVRQAPGKELEWVAVISYDGSIKYYADSVKGRFTISRDNSKNTLYLQMNSLRAEDTAVYYCARTGEYSGYDTDPQYSWGQGTTVTVSS VL: EIVLTQSPSSLSASVGDRVTITCRSSQGIGDDLGWYQQKPGKAPILLIYGTSTLQSGVPSRFSGSGSGTDFTLTINSLQPEDFATYYCLQDSNYPLTFGGGTRLEIK
 | ~0.8 nM |  |  |  |  |  |  |  |  |  |  | bifunctional antibody CT111 (bispecific antibody, human IgG4 S228P, kappa) light: not shown heavy: QVQLQQSGPEVVKPGASVKMSCKASGYTFTSYVIHWVRQKPGQGLDWIGYINPYNDGTDYDEKFKGKATLTSDTSTSTAYMELSSLRSEDTAVYYCAREKDNYATGAWFAYWGQGTLVTVSSASTKGPSVFPLAPCSRSTSESTAALGCLVKDYFPEPVTVSWNSGALTSGVHTFPAVLQSSGLYSLSSVVTVPSSSLGTKTYTCNVDHKPSNTKVDKRVESKYGPPCPPCPAPEFLGGPSVFLFPPKPKDTLMISRTPEVTCVVVDVSQEDPEVQFNWYVDGVEVHNAKTKPREEQFNSTYRVVSVLTVLHQDWLNGKEYKCKVSNKGLPSSIEKTISKAKGQPREPQVYTLPPCQEEMTKNQVSLWCLVKGFYPSDIAVEWESNGQPENNYKTTPPVLDSDGSFFLYSALTVDKSRWQEGNVFSCSVMHEALHNHYTQKSLSLSLGK EVQLVESGGGVVQPGRSLRLSCAASGFTFSSYGMHWVRQAPGKELEWVAVISYDGSIKYYADSVKGRFTISRDNSKNTLYLQMNSLRAEDTAVYYCARTGEYSGYDTDPQYSWGQGTTVTVSSGGGGSGGGGSGGGGSEIVLTQSPSSLSASVGDRVTITCRASQGIGDDLGWYQQKPGKAPILLIYGTSTLQSGVPSRFSGSGSGTDFTLTINSLQPEDFATYYCLQDSNYPLTFGGGTRLEIKYGPPCPPCPAPEFLGGPSVFLFPPKPKDTLMISRTPEVTCVVVDVSQEDPEVQFNWYVDGVEVHNAKTKPREEQFNSTYRVVSVLTVLHQDWLNGKEYKCKVSNKGLPSSIEKTISKAKGQPREPQVCTLPPSQEEMTKNQVSLSCAVKGFYPSDIAVEWESNGQPENNYKTTPPVLDSDGSFKLVSRLTVDKSRWQEGNVFSCSVMHEALHNHYTQKSLSLSLGK
 | ~1 nM |  |  |  |  |  |  |  | 1.97 nM | 5.9e-05 s⁻¹ | 30000 M⁻¹ s⁻¹ | bifunctional antibody CT112 (bispecific antibody, human IgG4 S228P, kappa, also called IgG CrossMab) light: not shown heavy: QVQLQQSGPEVVKPGASVKMSCKASGYTFTSYVIHWVRQKPGQGLDWIGYINPYNDGTDYDEKFKGKATLTSDTSTSTAYMELSSLRSEDTAVYYCAREKDNYATGAWFAYWGQGTLVTVSSASTKGPSVFPLAPCSRSTSESTAALGCLVKDYFPEPVTVSWNSGALTSGVHTFPAVLQSSGLYSLSSVVTVPSSSLGTKTYTCNVDHKPSNTKVDKRVESKYGPPCPPCPAPEFLGGPSVFLFPPKPKDTLMISRTPEVTCVVVDVSQEDPEVQFNWYVDGVEVHNAKTKPREEQFNSTYRVVSVLTVLHQDWLNGKEYKCKVSNKGLPSSIEKTISKAKGQPREPQVYTLPPCQEEMTKNQVSLWCLVKGFYPSDIAVEWESNGQPENNYKTTPPVLDSDGSFFLYSALTVDKSRWQEGNVFSCSVMHEALHNHYTQKSLSLSLGK chain 1: EVQLVESGGGVVQPGRSLRLSCAASGFTFSSYGMHWVRQAPGKELEWVAVISYDGSIKYYADSVKGRFTISRDNSKNTLYLQMNSLRAEDTAVYYCARTGEYSGYDTDPQYSWGQGTTVTVSGGSGTVAAPSVFIFPPSDEQLKSGTASVVCLLNNFYPREAKVQWKVDNALQSGNSQESVTEQDSKDSTYSLSSTLTLSKADYEKHKVYACEVTHQGLSSPVTKSFNRGECSKYGPPCPPCPAPEFLGGPSVFLFPPKPKDTLMISRTPEVTCVVVDVSQEDPEVQFNWYVDGVEVHNAKTKPREEQFNSTYRVVSVLTVLHQDWLNGKEYKCKVSNKGLPSSIEKTISKAKGQPREPQVCTLPPSQEEMTKNQVSLSCAVKGFYPSDIAVEWESNGQPENNYKTTPPVLDSDGSFKLVSRLTVDKSRWQEGNVFSCSVMHEALHNHYTQKSLSLSLGK chain 2: EIVLTQSPSSLSASVGDRVTITCRSSQGIGDDLGWYQQKPGKAPILLIYGTSTLQSGVPSRFSGSGSGTDFTLTINSLQPEDFATYYCLQDSNYPLTFGGGTRLEIKGSSASTKGPSVFPLAPCSRSTSESTAALGCLVKDYFPEPVTVSWNSGALTSGVHTFPAVLQSSGLYSLSSVVTVPSSSLGTKTYTCNVDHKPSNTKVDKRVES
